Laboratory results taken from the supplement of paper PMC12042874.
± gives the uncertainty stated by the source.

Assay: amyloid nucleation score (Sup35N fusion, yeast selection) (log enrichment); library NNK1; higher = more nucleation; inactive = no reads after selection
In short: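 Yeast lacking psi expressed peptides of 20 random codons fused to Sup35N, received 100 μM copper sulfate for 24 hours, and were then grown for 7 days at 30°C on medium lacking adenine and uracil. Illumina sequencing of input and output plasmid inserts provided the reads. Nucleation scores are DiMSum log enrichments of output over input, centred on the mode of non-aggregating sequences. Any sequence with under 100 input reads was excluded.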

Row | Substance | amyloid nucleation score
1 | MRWSIFRSTWFCAYSSLVSS | 0.131 ± 0.5
2 | MRYMCVRY | 0.676 ± 0.46
3 | MSDLLSVVN | 0.142 ± 0.81
4 | MSEENSTNIIYSIVPKSL | inactive
5 | MSGCLDDNANC | -0.382 ± 0.35
6 | MSISRALLGSSFMFGLVISA | -0.14 ± 0.83
7 | MSLSFAPLAIYPDNIVTDVI | -0.329 ± 0.7
8 | MSPLYNDFWYSCRIYKGEVM | 0.606 ± 0.55
9 | MSPWASNHLW | inactive
10 | MSSIKQY | -1.07 ± 2.4
11 | MSSVVLANFEGPAHELATGV | -0.072 ± 0.58
12 | MSVLAIMHLGPGHFAAAYY | 0.186 ± 0.4
13 | MSVLALVPGYLSA | -0.088 ± 0.46
14 | MSVMLIS | 0.126 ± 0.44
15 | MSWNYCNDM | -0.045 ± 0.22
16 | MTAIFSRSSQNFFVGW | 7.154 ± 0.066
17 | MTCDVSKMCVSLRVVTSNGG | 1.27 ± 0.31
18 | MTDMVVSCCMPAEVQRRSGA | 0.009 ± 1.1
19 | MTVCM | 0.125 ± 1.4
20 | MTVKSAPK | 0.258 ± 0.55
21 | MTVYLITNRHLR | 0.905 ± 0.64
22 | MTWNNWCSMRLACIS | 3.9 ± 0.074
23 | MVAEIYQAFWVC | -0.349 ± 1.2
24 | MVDFNSRSKYSVYLSHRGKF | 1.7 ± 0.11
25 | MVFSLSCFKSFTCYTYMCTA | 7.15 ± 0.055
26 | MVGCTYVCLADLFCKLLLMS | -0.015 ± 0.41

Row | Substance | amyloid nucleation score
27 | MVKYYNTQHDGVSFIEIRLL | 0.527 ± 0.33
28 | MVNILIK | 0.462 ± 0.49
29 | MVTCGYKDFK | -1.7 ± 1.5
30 | MVTTWVHGYVWRANGQTLFR | 1.28 ± 0.7
31 | MVVFMYVST | 0.289 ± 0.39
32 | MVVLRFAKCDSCMTSMAKIL | -0.045 ± 0.3
33 | MVVVVRTVLQVMRGR | 0.189 ± 0.76
34 | MWNGMAGMSQAGSCQRCS | -0.287 ± 0.71
35 | MWPRIPLRDPVVWEHRYCGI | -0.391 ± 0.65
36 | MWSGLIDYMEYLLGWLCT | 0.528 ± 1.2
37 | MWTFWFSVCTYLFL | 2.37 ± 0.2
38 | MWWHVSSMQDRDSGDFNGLL | 0.323 ± 0.22
39 | MYFCM | 6.7 ± 0.059
40 | MYFIVCTSWGSVVDRGIH | inactive
41 | MYGCFSGGSVFSSYAALFVI | -0.766 ± 0.41
42 | MYLITGKIARNAKTDSPGSN | -0.52 ± 0.68
43 | MYSHFCVYCNFYLSCNSSLI | 7.034 ± 0.05
44 | MYTFN | -0.031 ± 0.19
45 | MYTQGMYQEDSRDGNGW | -0.189 ± 0.25
46 | MYVNSSNYDLWMNFKIVFWA | 1.18 ± 0.25
47 | NAACLVLGNVSSFEYSSQMG | 2.41 ± 0.27
48 | NACGQVLCWYL | 8.816 ± 0.058
49 | NADCAYYDERYRYSSWLYFY | -1.2 ± 1.1
50 | NAFCHAYSI | -1.49 ± 1.2
51 | NAFQRV | 0.6 ± 0.72
52 | NAFSDRLTGCRLRGGMGRTS | -0.526 ± 0.88

Row | Substance | amyloid nucleation score
53 | NAGMSLRTFSLYSSWLIVPV | 0.179 ± 1
54 | NAIGILRHLTRMFPFD | 0.747 ± 0.44
55 | NAMVDGQGILIHSL | inactive
56 | NARPYRPSFILQSL | -0.698 ± 0.54
57 | NARWSGISFQC | -0.115 ± 0.87
58 | NASCFADKPLLCSLTGRVMD | -0.043 ± 0.49
59 | NCDDIYKYMVIVQGSQLFI | -0.211 ± 0.32
60 | NCHSSFYGNDIGGLSHVMCL | 1.89 ± 0.7
61 | NCNIMNFIDTCLCGAMYYFR | 4.12 ± 0.078
62 | NCTRWTLNTDVCSLDRHVPH | -0.5 ± 2.1
63 | NDLAKHLGFTVTF | 0.011 ± 0.28
64 | NDTMWMSSGLSPCVSSPSLG | -0.252 ± 1.4
65 | NDVFEHIITFCILRVYHMFC | -0.577 ± 0.3
66 | NDYYCFHRAIFFDTGMYFSN | -0.009 ± 0.41
67 | NECLWSSFYLIICFLVCYYY | 0.278 ± 0.46
68 | NEVMRFLSTCCMWIIHTSKV | inactive
69 | NFFYT | -0.758 ± 1.1
70 | NFGLPMYYFANDLESTDVVS | -0.115 ± 1.4
71 | NFKNRPSRLSRSNRSLFSTG | -0.887 ± 0.85
72 | NFLLTRPAAHELC | inactive
73 | NFLPVLVCQPLSWLLIPLLY | 0.309 ± 0.31
74 | NFMIMKSCDRSSLCHFMSYC | 7.436 ± 0.069
75 | NFNRRRLCIIMKFDDPPLHG | 0.102 ± 0.24
76 | NFRAWS | 0.129 ± 0.93
77 | NFRHFILVYLMPFT | inactive
78 | NFRLEYDLCVGLTSSHIGGL | -0.219 ± 0.48

Row | Substance | amyloid nucleation score
79 | NFSYMLLLAPSKVTRAGCFV | -0.134 ± 1.3
80 | NGFLHIRLRISALCELL | 0.137 ± 0.57
81 | NGFSYVCFNGFQLMCLDSIM | 7.779 ± 0.044
82 | NGHHALLYMPFAQTC | -0.745 ± 1.2
83 | NGLFIRYSVVMAYSELEVVG | -0.162 ± 0.7
84 | NGLSMSLSCRYTLWVIFFSF | -0.157 ± 1.2
85 | NGMSSFRCLYMWARTFPVSN | -0.424 ± 0.99
86 | NGMVTLYR | 0.977 ± 0.55
87 | NGRFSADS | -1.77 ± 1.6
88 | NGSSLVANELRVWIVSSFML | -0.59 ± 0.64
89 | NGTAVCLVRSLVYAHHGRQG | 0.481 ± 0.38
90 | NGVVLLFFSDSADMRLCAAM | 0.319 ± 0.58
91 | NGWILNLVWTVKNTSMTLIW | 0.678 ± 0.51
92 | NGYYRLSWIKWVQKDGRVRR | 0.598 ± 1
93 | NHCSLFCAFSW | 1.86 ± 0.67
94 | NIFWST | 0.361 ± 0.78
95 | NIGVMVLVLDARKDKRFGKI | 7.65 ± 0.082
96 | NIIDVTSDSCKPYHILEAIV | 0.015 ± 0.34
97 | NILMFEMVVRSFIGLTEKFL | 0.69 ± 1
98 | NINYLFVLYMDGSCMYWRAL | 6.354 ± 0.049
99 | NISDTIC | 0.474 ± 0.85
100 | NISVVGSSING | 0.713 ± 0.23
101 | NKEVNYTNIINCVGIRGCRL | 4.77 ± 0.051
102 | NKKKSLRWKGTGNGVPLVVQ | -0.399 ± 0.86
103 | NKLAHSNVDKAKLRDNPQAG | -0.407 ± 1
104 | NKLRGGVGERSVLQGWIEED | -0.052 ± 0.53

Row | Substance | amyloid nucleation score
105 | NKMGFSRCSLQGDVKFF | -0.482 ± 0.51
106 | NKRTLLVVY | -1.19 ± 0.81
107 | NKSCDGVRLCREARKALEPC | 0.34 ± 0.52
108 | NKYVVETDH | -0.604 ± 1.1
109 | NLASNVRESVGSGIYLMNIS | 1.97 ± 0.6
110 | NLEWGLYISTANCPRNYDKA | inactive
111 | NLFLVIPAFDLLMFGSERSS | 5.55 ± 0.063
112 | NLGAMWLNVVPVYLKWVAL | -0.095 ± 0.32
113 | NLGFTRSPHAETSLFTH | 0.235 ± 0.47
114 | NLGYDCGLGAMSGWMRWLIS | 0.459 ± 0.64
115 | NLPVGLEAM | -0.327 ± 0.62
116 | NLRHALRMVTNGLSCTRKHG | -0.278 ± 0.43
117 | NLRIGFVEQLSSGVLDGPDD | 0.471 ± 0.97
118 | NLRYYQFRSRSPTAWGHTMF | -0.744 ± 0.58
119 | NLSIYIYSNNLLLNVF | 6.194 ± 0.052
120 | NLSQSLVHRVSSVEYTLRLL | inactive
121 | NLVAT | 1.09 ± 0.67
122 | NLWKVFCSCLNRDMKALGNW | -1.04 ± 0.51
123 | NMDRVSFLR | -0.062 ± 0.6
124 | NMLFLSRGDP | -0.499 ± 1.9
125 | NMRYHGISCRYRKYYFRWLD | -0.261 ± 0.31
126 | NMSLSWRTNRYAWPMVCLIR | 0.182 ± 0.23
127 | NMVSCGDALR | -0.554 ± 1.7
128 | NMYNVRLFVPHFSLECLTWY | 2.87 ± 0.12
